Results as given in PMC2597023 (Journal of cellular biochemistry, 2008).

Target: full-length human IGFN1 with an N-terminal c-myc tag (human, UniProt Q86VF2-2 1-868)
Experiment: co-IP

- fold of eEF1A1 immunoprecipitated against cells with the empty pCMV-myc vector: ~4 fold
B1: endogenous eEF1A1 of mouse C2C12 myoblasts (natural protein, mouse (endogenous in C2C12), UniProt P10126 1-462, looked up)
chain: MGKEKTHINIVVIGHVDSGKSTTTGHLIYKCGGIDKRTIEKFEKEAAEMGKGSFKYAWVLDKLKAERERGITIDISLWKFETSKYYVTIIDAPGHRDFIKNMITGTSQADCAVLIVAAGVGEFEAGISKNGQTREHALLAYTLGVKQLIVGVNKMDSTEPPYSQKRYEEIVKEVSTYIKKIGYNPDTVAFVPISGWNGDNMLEPSANMPWFKGWKVTRKDGSASGTTLLEALDCILPPTRPTDKPLRLPLQDVYKIGGIGTVPVGRVETGVLKPGMVVTFAPVNVTTEVKSVEMHHEALSEALPGDNVGFNVKNVSVKDVRRGNVAGDSKNDPPMEAAGFTAQVIILNHPGQISAGYAPVLDCHTAHIACKFAELKEKIDRRSGKKLEDGPKFLKSGDAAIVDMVPGKPMCVESFSDYPPLGRFAVRDMRQTVAVGVIKAVDKKAAGAGKVTKSAQKAQKAK
